Measured values from patent publication US20220025069A1 (Hoffmann-La Roche, published 2022).
Like-named read-outs stand apart in the source and are kept apart here.

How the values were obtained:
[1] = biological target: T1, human 4-1BB (CD137), cell-surface-expressed on Jurkat-hu4-1BB-NFkB-luc2 reporter cell line (human, UniProt Q07011 24-186); test: cell-based or functional assay; design: AUC of activation curve, NFκB-luciferase in Jurkat-hu4-1BB-NFκB-luc2, crosslinking by WM-266-4 cells: unit not given beside the values
[2] = biological target: T2, human Fibroblast Activation Protein (FAP), cell-surface-expressed on NIH/3T3-huFAP clone 19 cells (human, UniProt Q12884 1-760); test: flow cytometry, NIH/3T3-huFAP clone 19 cells, gMFI curve
T2 construct: also called FAP-expressing cells
Procedure: (§1) Plates were incubated for 30 minutes at 4° C. and washed once with 200 μL, 4° C. cold DPBS buffer. […] Cells were washed twice with 200 μL 4° C. DPBS buffer and then resuspended in 50 μL/well DPBS containing 1% Formaldehyde for fixation. The same or the next day cells were resuspended in 100 μL FACS-buffer and acquired using MACSQuant Analyzer 10 (Miltenyi Biotec) or Canto II (BD).

[3] = biological target: T1, human 4-1BB (CD137), …; test: flow cytometry, Jurkat-hu4-1BB-NFkB-luc2 cells, gMFI curve
Procedure: (§2) For binding to cell-surface-expressed human 4-1BB (CD137) Jurkat-hu4-1BB-NFκB-luc2 reporter cell line (Promega, Germany) was used. […] Plates were incubated for 30 minutes at 4° C. and washed once with 200 μL 4° C. cold DPBS buffer. […] Cells were washed twice with 200 μL 4° C. FACS buffer and then resuspended in 50 μL/well DPBS containing 1% Formaldehyde for fixation. The same or the next day cells were resuspended in 100 μL FACS-buffer and acquired using MACSQuant Analyzer 10 (Miltenyi Biotec) or Cantoll (BD).

[4] = biological target: T2, human Fibroblast Activation Protein …; test: flow cytometry, NIH/3T3-huFAP clone 19 cells, PE anti-human Fc detection
Procedure: as §1

[5] = biological target: T1, human 4-1BB (CD137), …; test: cell-based or functional assay
[6] = biological target: T1, human 4-1BB (CD137), …; test: flow cytometry, Jurkat-hu4-1BB-NFkB-luc2 cells, PE anti-human Fc detection
Procedure: as §2

[7] = biological target: T1, human 4-1BB (CD137), …; test: cell-based or functional assay; design: unit not given beside the values
[8] = biological target: T1, human 4-1BB (CD137), …; test: cell-based or functional assay; remark: listed apart in the source
[9] = biological target: T1, human 4-1BB (CD137), …; test: flow cytometry, Jurkat-hu4-1BB-NFkB-luc2 cells, gMFI curve; remark: listed apart in the source
Procedure: (§3) For binding to cell-surface-expressed human 4-1BB (CD137) Jurkat-hu4-1BB-NFkB-luc2 reporter cell line (Promega, Germany) was used. […] Plates were incubated for 30 minutes at 4° C. and washed once with 200 μL 4° C. cold DPBS buffer. […] Cells were washed twice with 200 μL 4° C. FACS buffer and then resuspended in 50 DPBS containing 1% Formaldehyde for fixation.

[10] = biological target: T1, human 4-1BB (CD137), …; test: flow cytometry, Jurkat-hu4-1BB-NFkB-luc2 cells, PE anti-human Fc detection; remark: listed apart in the source
Procedure: as §3

B1: FAP (4B9) huIgG1 PG LALA antibody (antibody, V domains shown)
VH: EVQLLESGGGLVQPGGSLRLSCAASGFTFSSYAMSWVRQAPGKGLEWVSAIIGSGASTYYADSVKGRFTISRDNSKNTLYLQMNSLRAEDTAVYYCAKGWFGGFNYWGQGTLVTVSS
VL: EIVLTQSPGTLSLSPGERATLSCRASQSVTSSYLAWYQQKPGQAPRLLINVGSRRATGIPDRFSGSGSGTDFTLTISRLEPEDFAVYYCQQGIMLPPTFGQGTKVEIK
notes: the control is a human IgG1 with P329G, L234A, L235A (PG LALA)
[1]
  AUC of activation curve, NFκB-luciferase in Jurkat-hu4-1BB-NFκB-luc2, crosslinking by NIH/3T3-huFAP clone 19 cells: 521
  AUC of activation curve, NFκB-luciferase in Jurkat-hu4-1BB-NFκB-luc2, crosslinking by WM-266-4 cells: 384
[2]
  Area under the curve (AUC) of binding curve: 30400
[3]
  Area under the curve (AUC) of binding curve: 75
[4]
  EC50: 1.59 nM

B2: bispecific, monovalent 1+2 anti-FAP, anti-4-1BB lipocalin huIgG1 PGLALA antigen binding molecule (bispecific antibody)
heavy 1: DKTHTCPPCPAPEAAGGPSVFLFPPKPKDTLMISRTPEVTCVVVDVSHEDPEVKFNWYVDGVEVHNAKTKPREEQYNSTYRVVSVLTVLHQDWLNGKEYKCKVSNKALGAPIEKTISKAKGQPREPQVCTLPPSRDELTKNQVSLSCAVKGFYPSDIAVEWESNGQPENNYKTTPPVLDSDGSFFLVSKLTVDKSRWQQGNVFSCSVMHEALHNHYTQKSLSLSPGGGGGSGGGGSGGGGSQDSTSDLIPAPPLSKVPLQQNFQDNQFHGKWYVVGQAGNIRLREDKDPIKMMATIYELKEDKSYDVTMVKFDDKKCMYDIWTFVPGSQPGEFTLGKIKSFPGHTSSLVRVVSTNYNQHAMVFFKFVFQNREEFYITLYGRTKELTSELKENFIRFSKSLGLPENHIVFPVPIDQCIDG
heavy 2: not shown
light: EIVLTQSPGTLSLSPGERATLSCRASQSVTSSYLAWYQQKPGQAPRLLINVGSRRATGIPDRFSGSGSGTDFTLTISRLEPEDFAVYYCQQGIMLPPTFGQGTKVEIKRTVAAPSVFIFPPSDEQLKSGTASVVCLLNNFYPREAKVQWKVDNALQSGNSQESVTEQDSKDSTYSLSSTLTLSKADYEKHKVYACEVTHQGLSSPVTKSFNRGEC
notes: also called FAP (4B9) x 4-1BB lipocalin huIgG1 PG LALA 1+2; 1+2 FAP(4B9) x 4-1BB lipocalin huIgG1 PGLALA
[5]
  EC50 of activation curve, NFκB-luciferase in Jurkat-hu4-1BB-NFκB-luc2, crosslinking by NIH/3T3-huFAP clone 19 cells: 0.02 nM
  EC50 of activation curve, NFκB-luciferase in Jurkat-hu4-1BB-NFκB-luc2, crosslinking by WM-266-4 cells: 0.07 nM
[6]
  EC50: 2.39 nM
[1]
  AUC of activation curve, NFκB-luciferase in Jurkat-hu4-1BB-NFκB-luc2, crosslinking by NIH/3T3-huFAP clone 19 cells: 93200
  AUC of activation curve, NFκB-luciferase in Jurkat-hu4-1BB-NFκB-luc2, crosslinking by WM-266-4 cells: 37400
[2]
  Area under the curve (AUC) of binding curve: 32500
[3]
  Area under the curve (AUC) of binding curve: 681
[4]
  EC50: 2.88 nM

B3: 2+2 FAP(4B9) x 4-1BB lipocalin huIgG4 SP molecule (bispecific antibody)
heavy: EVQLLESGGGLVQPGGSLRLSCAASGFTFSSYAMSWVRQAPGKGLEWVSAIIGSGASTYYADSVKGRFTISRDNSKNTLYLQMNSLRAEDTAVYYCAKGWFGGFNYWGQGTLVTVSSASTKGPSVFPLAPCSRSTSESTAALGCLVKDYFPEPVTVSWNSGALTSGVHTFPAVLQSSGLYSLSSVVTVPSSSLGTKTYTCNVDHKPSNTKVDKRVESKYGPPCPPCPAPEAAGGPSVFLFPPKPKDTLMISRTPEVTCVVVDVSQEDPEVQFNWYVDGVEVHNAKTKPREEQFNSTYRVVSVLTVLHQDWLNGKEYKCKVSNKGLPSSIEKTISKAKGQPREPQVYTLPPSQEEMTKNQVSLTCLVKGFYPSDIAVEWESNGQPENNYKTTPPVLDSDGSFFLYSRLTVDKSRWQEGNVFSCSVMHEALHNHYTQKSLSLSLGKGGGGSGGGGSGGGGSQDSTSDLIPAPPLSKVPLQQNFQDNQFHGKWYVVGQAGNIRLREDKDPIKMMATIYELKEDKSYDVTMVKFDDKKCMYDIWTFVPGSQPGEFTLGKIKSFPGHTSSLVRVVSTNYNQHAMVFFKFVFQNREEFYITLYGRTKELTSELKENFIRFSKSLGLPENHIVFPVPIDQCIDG
light: B2 light
notes: Comparison molecule; also called FAP (4B9) x 4-1BB lipocalin huIgG4 SP 2+2; FAP (4B9) anti-4-1BB lipocalin huIgG4 SP 2+2
[5]
  EC50 of activation curve, NFκB-luciferase in Jurkat-hu4-1BB-NFκB-luc2, crosslinking by NIH/3T3-huFAP clone 19 cells: 0.12 nM
  EC50 of activation curve, NFκB-luciferase in Jurkat-hu4-1BB-NFκB-luc2, crosslinking by WM-266-4 cells: 0.02 nM
[6]
  EC50: 1.72 nM
[1]
  AUC of activation curve, NFκB-luciferase in Jurkat-hu4-1BB-NFκB-luc2, crosslinking by NIH/3T3-huFAP clone 19 cells: 55200
  AUC of activation curve, NFκB-luciferase in Jurkat-hu4-1BB-NFκB-luc2, crosslinking by WM-266-4 cells: 11700
[2]
  Area under the curve (AUC) of binding curve: 21000
[3]
  Area under the curve (AUC) of binding curve: 694
[4]
  EC50: 1.19 nM

B4: bispecific, bivalent 2+2 anti-FAP, anti-4-1BB lipocalin huIgG1 PGLALA antigen binding molecule (bispecific antibody)
heavy: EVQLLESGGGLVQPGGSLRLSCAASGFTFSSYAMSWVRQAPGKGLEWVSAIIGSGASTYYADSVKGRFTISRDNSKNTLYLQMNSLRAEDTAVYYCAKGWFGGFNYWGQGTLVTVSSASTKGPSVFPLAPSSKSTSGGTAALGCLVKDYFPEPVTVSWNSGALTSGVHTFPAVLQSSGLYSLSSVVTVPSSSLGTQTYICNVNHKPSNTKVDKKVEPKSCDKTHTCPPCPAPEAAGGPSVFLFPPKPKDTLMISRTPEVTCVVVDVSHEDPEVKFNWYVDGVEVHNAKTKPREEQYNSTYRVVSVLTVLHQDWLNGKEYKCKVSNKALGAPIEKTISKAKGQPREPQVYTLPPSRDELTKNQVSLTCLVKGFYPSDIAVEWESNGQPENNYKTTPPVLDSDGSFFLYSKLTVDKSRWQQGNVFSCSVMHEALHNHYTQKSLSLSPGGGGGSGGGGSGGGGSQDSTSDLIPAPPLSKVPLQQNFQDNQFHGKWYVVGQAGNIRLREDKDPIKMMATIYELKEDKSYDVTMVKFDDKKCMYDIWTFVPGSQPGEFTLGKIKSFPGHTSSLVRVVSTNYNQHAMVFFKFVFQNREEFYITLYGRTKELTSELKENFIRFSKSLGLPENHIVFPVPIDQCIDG
light: B2 light
notes: also called FAP (4B9) x 4-1BB lipocalin huIgG1 PG LALA 2+2; 2+2 FAP(4B9) x 4-1BB lipocalin huIgG1 PGLALA
[5]
  EC50 of activation curve, NFκB-luciferase in Jurkat-hu4-1BB-NFκB-luc2, crosslinking by NIH/3T3-huFAP clone 19 cells: 0.04 nM
  EC50 of activation curve, NFκB-luciferase in Jurkat-hu4-1BB-NFκB-luc2, crosslinking by WM-266-4 cells: 0.02 nM
[6]
  EC50: 2.09 nM
[1]
  AUC of activation curve, NFκB-luciferase in Jurkat-hu4-1BB-NFκB-luc2, crosslinking by NIH/3T3-huFAP clone 19 cells: 65500
  AUC of activation curve, NFκB-luciferase in Jurkat-hu4-1BB-NFκB-luc2, crosslinking by WM-266-4 cells: 20400
[2]
  Area under the curve (AUC) of binding curve: 28800
[3]
  Area under the curve (AUC) of binding curve: 746
[4]
  EC50: 2.01 nM

B5: bispecific, monovalent 1+2 anti-HER2, anti-4-1BB lipocalin huIgG1 PGLALA antigen binding molecule (bispecific antibody)
heavy 1: B2 heavy 1
heavy 2: not shown
light: not shown
notes: also called HER2 (TRAS) x 4-1BB lipocalin huIgG1 PG LALA 1+2; 1+2 HER2 x 4-1BB lipocalin huIgG1 PGLALA
[7]
  AUC of activation curve, NFκB-luciferase in Jurkat-hu4-1BB-NFκB-luc2, crosslinking by KPL4 cells: 11400
  AUC of activation curve, NFκB-luciferase in Jurkat-hu4-1BB-NFκB-luc2, crosslinking by NCI-N87 cells: 12100
  AUC of activation curve, NFκB-luciferase in Jurkat-hu4-1BB-NFκB-luc2, crosslinking by SK-Br3 cells: 3960
[8]
  EC50 of activation curve, NFκB-luciferase in Jurkat-hu4-1BB-NFκB-luc2, crosslinking by KPL4 cells: 0.19 nM
  EC50 of activation curve, NFκB-luciferase in Jurkat-hu4-1BB-NFκB-luc2, crosslinking by NCI-N87 cells: 0.15 nM
  EC50 of activation curve, NFκB-luciferase in Jurkat-hu4-1BB-NFκB-luc2, crosslinking by SK-Br3 cells: 0.33 nM
[9]
  Area under the curve (AUC) of binding curve: 2100
[10]
  EC50: 6.95 nM
